# Experiment: yeast display, Sf9 membrane polyspecificity reagent, FACS + sequencing; frameworks hold sequencing errors
# Procedure, shortened: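 Using colony PCR, genes from sorted yeast display clones were amplified, then sequenced on MiSeq at 2 × 250 and filtered by CDR length. The clones had been stained with 10% biotinylated, detergent-solubilized Sf9 membrane reagent for 1 hour at 4 °C and sorted by FACS into low and high (top ~1%) gates on anti-HA and streptavidin fluorescence. Polyreactivity labels come from the gate of origin.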
row,Sequence,polyreactivity (PSR sort gate)
1,QVQLVESGGGLVQAGGSLRLSCAASGLTFYYNAMGWYRQAPGKERELVAVIRGSGGSTYYADSVKGRFTISRDNAKNTVYLQMNSLKPEDTAVYYCAARVAASRRYYYWGQGTQVTVSS,high polyreactivity
2,QVQLVESGGGLVQAGGSLRLSCAASGLTFYYYAMGWYRQAPGKERELVADISYSGGSTYYADSVKGRFTISRDNAKNTVYLQMNSLKPEDTAVYYCAAEGGYTISGSYDYWGQVTQVTVSS,low polyreactivity
3,QVQLVESGGGLVQAGGSLRLSCAASGLTFYYYAMGWYRQAPGKERELVARISSGTSTYYADSVKGRFTISRDNAKNTVYLQMNCMKPEDTAVYYCTARRKLGSTHGPWGGLEYWGEGTQVTVSS,low polyreactivity
4,QVQLVESGGGLVQAGGSLRLSCAASGLTFYYYAMGWYRQAPGKERQLVAAISRSGGSTYYADSVKGRFTISRDNAKNTVYLQMNSLKPEDTAVYYCAAREPYEGQRYYYEYYYWGQGTQVTVSS,high polyreactivity
5,QVQLVESGGGLVQAGGSLRLSCAASGLTIFVNAMGWYRQAPGKERELVATISGGGSTYYADSVKGRFTISRDNAKNTVYLQMNSLKPEDTAVYYCNAADVGGPWWYPYTYNYWGQGTQVTVSS,low polyreactivity
6,QVQLVESGGGLVQAGGSLRLSCAASGLTIGSNVMGWYRQAPGKERELVAAISQSGGRTYYADSVKGRFTISRDNAKNTVYLQMNSLKQEDTAVYYCAKRLRSFYGRPMGDYWGQGTQVTVSS,high polyreactivity
7,QVQLVESGGGLVQAGGSLRLSCAASGLTIRNYAMGWYRQAPGKERELVAAITVSGGSTYYADSVKGRFTISRDNAKNTVYLQMNSLKPEDTAVYYSSARVIHTTYSRNYYYWGQGTQVTVSS,high polyreactivity
8,QVQLVESGGGLVQAGGSLRLSCAASGLTIVWYGMVWYRQAPGKERELVAAITRGGSTYYADSVKGRFTISRDNAKNTVYLQMNSLKPEDTAVYYCAATSTYRARFEYWGQGTQVTVSS,high polyreactivity
9,QVQLVESGGGLVQAGGSLRLSCAASGLTIWRYALGWYRQAPGKEREFVATISQNGGRTYYADSVKGRFTISRDNAKNTVYVQMNSLKPEDTAVYYCADDDWRWGYDYWGQGTQVTVSS,high polyreactivity
10,QVQLVESGGGLVQAGGSLRLSCAASGLTIYHYSMGCYRQAPGKERELGAAISGNGVSTYYADSVKGRFTISRDNAKNTVYLQMNSLNPEDTAVYYCNVVFRFNSFDFYYWGLGTQVTVSS,high polyreactivity
11,QVQLVESGGGLVQAGGSLRLSCAASGLTIYPNAMGWYRQAPGKERELVAAITYSGDTYYADSVKGRFTISRDNAKNTVYLQMNSLKPEDTAVYYCATDVDWAYGYQYEYWGQGTQVTVSS,low polyreactivity
12,QVQLVESGGGLVQAGGSLRLSCAASGLTLDPYAMGWSRQAPGKERELVAAISWSGGGTTYADSVKGRFTISRDNAMNTVYLQMNSLKPEDTAVYYCAAAAPHLSAKMDYWGQGTQVTVSS,low polyreactivity
13,QVQLVESGGGLVQAGGSLRLSCAASGLTLFYYVMGWYRQAPGKERELVAANTTSGGRTYYADSVKGRFTISRDNAKHTVYLQMNSLKPEDTAVYYCAAQSSVAYIHTPTYRYDYWGQGTQVTVSS,high polyreactivity
14,QVQLVESGGGLVQAGGSLRLSCAASGLTLGDNAMGWSRQAPGNERELVASITNGGSTNYADSVKGRFTISRDNAKNTVYLQMNSLNPEDTAVYYCAVEWTWRSTAYSGGAFDYWGQGTQVTVSS,low polyreactivity
15,QVQLVESGGGLVQAGGSLRLSCAASGLTLGSYAMGWYRQAPGKERELVAAISRRSGRTYYADSVKGRFTISRDNAKNTVYLQMNSLKPEDTAVYYCAAEIPYYVDTPGDDYWGQGTQVTVSS,low polyreactivity
16,QVQLVESGGGLVQAGGSLRLSCAASGLTLKRYAMGWYRQAPGKERELVAAISTRGGSTYYADSVKGRFTISRDNAKNTVYLQMNSLKPEDTAVYYCAAGDYWGQGTQVTVSS,high polyreactivity
17,QVQLVESGGGLVQAGGSLRLSCAASGLTLRENAMGWYRQAPGKERELVAAITNGGSTYYADSVKGRFTISRDNAKNTVYLQMNSLKPEDTAVYYCAADNLTYVISWDSDYWGQGTQVTVSS,low polyreactivity
18,QVQLVESGGGLVQAGGSLRLSCAASGLTLRNSAMGWYRQAPGKERELVAAITTGGGRTYYADSVKGRFTISRDNAKNTVYLQMNSLKPEDTAVYYCAKKPSSARYVTIGFDYWGQGTQVTVSS,low polyreactivity
19,QVQLVESGGGLVQAGGSLRLSCAASGLTLYDYAMGWYRQAPGKERELVADIDFNGGSTSYADSVKGRFTISRDNAKNTVYLQMNSLKPEDTAVYYCNTRDRGDVVTGLDYWGQGTQVTVSS,low polyreactivity
20,QVQLVESGGGLVQAGGSLRLSCAASGLTLYKYAMGWYRQADGKVRELVATSRSRGTSTYYADSVKGRFTISRDNAKNTVYLQMNSLKPEDTAVYDCAADYLYRWLFAYNGGMDYCGQGTQVTVSS,high polyreactivity
21,QVQLVESGGGLVQAGGSLRLSCAASGLTLYLYTMGWYRQAPGTERELVASIDSGTSTKYADSVKGRFTISRDNAKNTVYLQMNSLKPEDTAVYYCAAGVWVTRYFGYYYWGQGTQVTVSS,low polyreactivity
22,QVQLVESGGGLVQAGGSLRLSCAASGLTLYLYTMGWYRQAPRTDRELVASIDSGTSTKYADSVKGRFTISRDHAKYTVYLQMNRLKPVDTAGYDCAAGVWVTRYFGYYYWGQGTQVTVSS,low polyreactivity

row,Sequence,polyreactivity (PSR sort gate)
1,QVQLVESGGGLVQAGGSLRLSCAASGLTSDYNAMGWYRQAPGKERELVAAISSGGRTYYADSVKGRFTISRDNAKNTVYLQMNSLKPEDTAVYYCAAEFRVLRGYQYDYWGQGTQVTVSS,high polyreactivity
2,QVQLVESGGGLVQAGGSLRLSCAASGLTSYDNTMGWYRQAPGKERELVARIRRTGGGTYYADSVKGRFTISRDNAKNTVYLQMNSMKPEDTAVYYCAATITPYDYDYIWFVYSDHDYWGQGTQVTVSS,low polyreactivity
3,QVQLVESGGGLVQAGGSLRLSCAASGLTVGGNVMGWYRQAPGKERELVAAISRSGDRTYYADSVKGRFTISRDNAKNTVYLQMNSLKPEDTAVYYCAVRVLYRQVFRYDYWGQGTQVTVSS,high polyreactivity
4,QVQLVESGGGLVQAGGSLRLSCAASGLTYANAKGWYRQAPGKERELVATIRYSGGSTYYADSVKGRFTISRDNAKNTVYLQMNSLKPEDTAVYYCAARRTAGYRSGEYDYWGQGTQVTVSS,high polyreactivity
5,QVQLVESGGGLVQAGGSLRLSCAASGLTYYTYAMGWYRQAPGKERELVAAITASGGRTYYADSVKGRFTISRDNAKNTVYLQMNSLKPEDTAVYYCAADIRGDTYDYWGQGTQVNVSS,high polyreactivity
6,QVQLVESGGGLVQAGGSLRLSCAASGMIFGYYVMGWYRQAPGKERELVAAINSGGNTNYADSVKGRFTISRDNAKNTVYLQMNSLKPEDTAVYYCNRSYDSTDIREDYWGQGTQVTVSS,low polyreactivity
7,QVQLVESGGGLVQAGGSLRLSCAASGMIFKYYVMGWYRKAPGKERELVDDIRCSGGITSYADSVKGRFTISRDNAKNTVYLQMNSLKPEDTAVYYCAVAHSRLRTAYTFSVQRYDYWGQGTQVTVSS,low polyreactivity
8,QVQLVESGGGLVQAGGSLRLSCAASGMTFAENAMGWYREAPGKERELVAANSASGGSTYYADSVKGRFTISRDNAKNTVYLQMNSLKPEDTAVFYCATRVAFLWPRRDYDYWGQGTQVTVSS,low polyreactivity
9,QVQLVESGGGLVQAGGSLRLSCAASGMTFHRYAMGWYRQTPGKERELVAAINYSGGRTYYADSVKGRFTISRDNAKNTVYLQMNSLKPEDTAVYYCAAPRASGYYWGQGTQVTVSS,high polyreactivity
10,QVQLVESGGGLVQAGGSLRLSCAASGNIFAIYAMGWYIQAPGKEREFVAAIDWSVASTYYADSVKGRFTISRDNAKNTVYLQMNSLKPEDTAVYYCAAELYGLKYAYYLSYDYWGQGTQVTVSS,high polyreactivity
11,QVQLVESGGGLVQAGGSLRLSCAASGNIFAWYAMGWYRQAPGKERELVADISSRGGSTYYADSVKGRFTISRDNAKITVYLQMNSLKPEDSAVYYCAAVWYWTQDYDYWGLGTQVTVSS,low polyreactivity
12,QVQLVESGGGLVQAGGSLRLSCAASGNIFAWYAMGWYRQAPGKERELVADISSRGGSTYYADSVKGRFTISRDNAKNTVYLQMNRLKPEDTAVYYCAAVWYWTQDYDYWGQGTQVTVSS,low polyreactivity
13,QVQLVESGGGLVQAGGSLRLSCAASGNIFAYYALGWYRQAPGKEREFVAAIRSSGVSTYYADSVKGRFTISRDNAKNTVYLQMNSLKPEDTAVYYCAADSITGGWLIVSPPYNYTYDYWGQGTQVTVSS,low polyreactivity
14,QVQLVESGGGLVQAGGSLRLSCAASGNIFDGYAMGWYRQAPGKERELVAAITSSAGSTYYADSVKGRFTISRDNAKNTVYLQMNSLKPEDTAVYYCNKVTKYRPIEGSWGQGTQVTVSS,high polyreactivity
15,QVQLVESGGGLVQAGGSLRLSCAASGNIFDRYAMGWYRQAPGKERELVAGITWSGGSTYYADSVKGRFTISRDNAKNTVYFQMTSLKPEDTAVYYCGKANYYWGQGTQVTVSS,low polyreactivity
16,QVQLVESGGGLVQAGGSLRLSCAASGNIFDRYVMGWYRQAPGKERELVAAISVSGGSTYYADSVKGRFTISRDNAKNTVFLQMNSLKPEDTAVYYCAAHSRLINWYDYWGQGTQVTVSS,high polyreactivity
17,QVQLVESGGGLVQAGGSLRLSCAASGNIFESYGMGWYRQAPGKERELVATINTSSGSTYYADSVKGRFTISRDNAKNTVYLQMNSLKPEDTAVSSCAGEWYPYAWGYGYWGQGTQVTVSS,low polyreactivity
18,QVQLVESGGGLVQAGGSLRLSCAASGNIFFRNAMGWYRQAPGKERELVAAISWRGTSTYYADSVKGRFTISRDNAKNTVYLQMNSLKPEDTAVYYCAARGLWPYDYWGQGTQVTVSS,low polyreactivity
19,QVQLVESGGGLVQAGGSLRLSCAASGNIFGFYTMGWYRQAPGKERELVAAIRSRGGSTNYADSVKGRFTISRDNAKNTVYLQMNSLKPEDTAVDYCAADPRYISYDYWGQGTQVTVSS,low polyreactivity
20,QVQLVESGGGLVQAGGSLRLSCAASGNIFGVYTMGWYRQAPGKERELVAVITSGGRTYYADSVKGRFTISRDNAKNTVYLQMNSLKPADTAVYYCAADIRYTREEYWGQGPQVTVSS,high polyreactivity
21,QVQLVESGGGLVQAGGSLRLSCAASGNIFGWYAMGWYRKAPGKERELVAAISSGGRTNYADSVKGRFTISRDYAKNTVYLQMNSLKPEDTAVYYCNKVAGVTGRYYYWGQGTQVTVSS,low polyreactivity

# From the nanobody polyreactivity screen of Harvey et al. (2022)
